System: MS2 coat protein
Experiment: apparent KD of MS2 coat protein; designed switch direction (-1 OFF switch, 1 ON switch): 1; higher = weaker reporter binding
How it was run: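 Apparent KD, taken as the median over clusters for each design, was obtained by curve-fitting normalised cluster fluorescence. Designed RNA switches had been transcribed on Illumina chips by stalled E. coli RNA polymerase and titrated with SNAP-549-labelled MS2 coat protein, doubling from 0.7 or 1.5 nM to 3 µM.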

[1] = Eterna round: R95, input ligand: FMN 200 uM
[2] = Eterna round: R95, input ligand: microRNA oligo, concentration not stated
[3] = Eterna round: R95, input ligand: none
[4] = input ligand: microRNA oligo, concentration not stated

Sequence | apparent KD of MS2 coat protein [1] | apparent KD of MS2 coat protein [2] | apparent KD of MS2 coat protein [3] | apparent KD of MS2 coat protein (input ligand: FMN 200 uM) | apparent KD of MS2 coat protein [4] | apparent KD of MS2 coat protein (input ligand: none)
GAGAAGAGGGACAAGGAUAUGUCAGGAGAGACAUGAGGAUCACCCAUGUAGAGGAAGAGAGAGAGACAGAAGGUGUCGAGAGCGA [JR_SS2_Sub015] (puzzle: Same State 2) | 0.118 µM | 0.066 µM | 0.13 µM |  |  | 
GGCGAACAGGCUAACAUGAGGAUCACCCAUGUGGACUCAUGUUAGGAUAUCGGGAAGGAGGAAACCGAGAAGGGACGGUGAGCC [AK SSNG3-V2-47] (Eterna round: R96, puzzle: Same State NG 3) |  |  |  | 0.0188 µM | 0.00925 µM | 0.0823 µM
CUAUCUACAGGUGUCAUUGCUCGUCUUAUACAUGAGGAUCACCCAUGUUAUAGCCCGGUGCUUGCGCUGGGCUGAUU [JL ViennaUCT Tearor mod 5] (puzzle: Sensor for hsa-mir-208a) | 0.114 µM | 0.0155 µM | 0.0999 µM |  |  | 
UGGAAGAAUUAAGGAUAUCGAGUACAUAUGUUUAACAUGAGGAUCACCCAUGUGGGUUGCGGUAUCGAGAAGGUAAAUUACAAG [Mat - same State NG 2 - JL mod - D61] (Eterna round: R96, puzzle: Same State NG 2) |  |  |  | 0.0446 µM | 0.0405 µM | 0.044 µM
GUAGCAUACCGAGGAUAUUCAAAUUAACAUGAGGAUCACCCAUGUAGGCCACAUUAGUGGCCUUGGGAGAAGGCGGAAUGCUAC [Xeonanis - 20 Mod39] (Eterna round: R96, puzzle: Same State NG 2) |  |  |  | 0.0133 µM | 0.0431 µM | 0.0607 µM
AGCCGAGACACAGGAUAUAGAUAUCUACAUGAGGAUCACCCAUGUAGCAACACGUGGUAGUGAUUCUAGAAGGGUGCUCGGCGC [Omei SS(NG)2 Cv8] (Eterna round: R96, puzzle: Same State NG 2) |  |  |  | 0.0253 µM | 0.17 µM | 0.189 µM
GACCGCGAGGAAGGAUAUGGAGCCUUAUUGGCUCCAGAAGGUCCAUAAAGGACAUGAGGAUCACCCAUGUGGGCUGAAGCGGUC [Fiskers NG1ss - 9] (Eterna round: R96, puzzle: Same State NG 1) |  |  |  | 0.022 µM | 0.0258 µM | 0.0351 µM
UUAAUGAUGUAAGGAUAUACAUGAGGAUUUCUCGUAGAAGGUACAAGACAUGAGGAUCACCCAUGUGUCGCUCGAAAGAGCGUA [Mat - Same State NG 1 - JL mod - D20] (Eterna round: R96, puzzle: Same State NG 1) |  |  |  | 0.282 µM | 0.113 µM | 0.316 µM
AGCUAGUACCGAGGAUAUACGUACAUGAGGAUCACCCAUGUAUACAUGGUUUAAUGAGACUACAUGUAGAAGGCGGUACUAGCA [JL SSNG2 1.25] (Eterna round: R96, puzzle: Same State NG 2) |  |  |  | 0.175 µM | 0.532 µM | 0.636 µM
UAAAUACAUGAGGAUCACCCAUGUCAAAAGACAUGAGGAUAUGUACAGUCUUCGGUCUGUACAGAAGGCAUGAAUA [salish99_ss1_r3_097] (puzzle: Same State 1) |  | 0.434 µM |  |  |  | 
GAAAAGGCAACGCAGGAUAUGAAAGGUGAAACAUGAGGAUCACCCAUGUGCUACCUUCCGAUAAAUCAGAAGGGCGACGCCAAAA [Leceave] (puzzle: Same State 2) | 0.0154 µM | 0.0156 µM | 0.0194 µM |  |  | 
GAGUAGUUGAAAGGAUAUUGAUUGUUAUAGAAUCAAGAAGGUUCUAACAUGAGGAUCACCCAUGUAGGACUAUUCCUGUGUAUC [Parity 78 - Jieux - Same State NG 1] (Eterna round: R96, puzzle: Same State NG 1) |  |  |  |  | 0.00915 µM | 
UGUUGUAUUACAGGAUAUCUAUGAUUUUAAUUUAGAGAAGGGUAUUCACAUGAGGAUCACCCAUGUAUAUACGAGGAAGUUGUG [JMF's solution 63] (Eterna round: R96, puzzle: Same State NG 1) |  |  |  |  | 0.0402 µM | 
GUAAAACAUGAGGAUCACCCAUGUCAACAAAGUCGAGGAUAUGGGCAAAUAAAAUAAGAACCAGAAGGCGAAUAAU [salish99_SS1_r3_011] (puzzle: Same State 1) | 0.0316 µM | 0.254 µM | 0.325 µM |  |  | 
AGUCCAGCCUGAGCUGGACAAAAGCAUGUACAUGAGGAUCACCCAUGUUUAUGUACAAGCUUUUUGCUCGUCUUAAA [Zipper 52 - 12] (puzzle: Sensor for hsa-mir-208a) | 0.257 µM | 0.0162 µM | 0.313 µM |  |  | 
AAGGUGCAGGUACAGGAUAUGUUGCUCGUAACAUGAGGAUCACCCAUGUACCUAUGAGAUUAAAUGCAGAAGGGUGCACACCAAA [Mat - Same State 2 - Mod of UCT - D91] (Eterna round: R96, puzzle: Same State 2) |  |  |  | 0.0706 µM | 0.168 µM | 0.731 µM

Sequence | apparent KD of MS2 coat protein [1] | apparent KD of MS2 coat protein [2] | apparent KD of MS2 coat protein [3] | apparent KD of MS2 coat protein (input ligand: FMN 200 uM) | apparent KD of MS2 coat protein [4] | apparent KD of MS2 coat protein (input ligand: none)
AUUAUACAUGAGGAUCACCCAUGUAAUUAAUCUAGUAAGAUCUAGGAUAUCAGCUCGAUUAGAGCUGAGAAGGAGAUCACAUGU [SSNG3/20-D2] (Eterna round: R96, puzzle: Same State NG 3) |  |  |  |  | 0.0429 µM | 
UCUUGGUUUUUGCUCGUUUUUUGUGUUGAACAUGAGGAUCACCCAUGUAUUGUACGGUCCAAUUUAGUGGUAGUCCG [JMF 67] (puzzle: Sensor for hsa-mir-208a) | 0.0384 µM | 0.0253 µM | 0.0387 µM |  |  | 
UUACAGUGCGGGUAGGAUAUGUAGGGUGGUACAUGAGGAUCACCCAUGUAUCCACCCUUCGACCGGCAGAAGGGCCUGUCACUAC [Atarzale] (Eterna round: R96, puzzle: Same State 2) |  |  |  | 0.014 µM | 0.0121 µM | 0.0198 µM
GUACUACAUGAGGAUCACCCAUGUACAAAUGUACGAGGAUAUGCAUGGACGAAAGUUGGUGCAGAAGGCGUAGUAC [Pin2Pin #4] (puzzle: Same State 1) |  | 0.0271 µM |  |  |  | 
GAGCCAGUCCGAGGAUAUUCAUAAAUUAAAUACAUGAGGAUCACCCAUGUAGGCAGAGAGCCUUGGGAGAAGGCGGACUGGCUC [Xeonanisa>>3] (Eterna round: R96, puzzle: Same State NG 2) |  |  |  | 0.0109 µM | 0.0255 µM | 0.0373 µM
UGUUUGUUGUGAGGAUAUACAUACACCUUACAUGAGGAUCACCCAUGUUGUUACCUUGAUAGUUAGUAGAAGGCACUUGGUUAU [JR_SSNG2_Sub046] (Eterna round: R96, puzzle: Same State NG 2) |  |  |  | 0.243 µM | 0.14 µM | 0.261 µM
ACGUCGAUAUCACAGGAUAUACUCACAUCUACAUGAGGAUCACCCAUGUAGCGGUAUUCCGGUGCGUAGAAGGGUGAUGGACGAC [Same State 2 - Mod of Artece v.4] (puzzle: Same State 2) | 0.0144 µM | 0.0124 µM | 0.0122 µM |  |  | 
GUGGUCAGACAUGAGGAUCACCCAUGUGGAAUAAAUAACACACAGGAUAUCCAAUAUAAAAUAUAGGAGAAGGGUGGAUUGGUG (Eterna round: R96, puzzle: Same State NG 3) |  |  |  |  | 0.176 µM | 
GUACUACAUGAGGAUCACCCAUGUACAAAGGUACGAGGAUAUGCAUGGACGAAAGUUGGUGCAGAAGGCGUGGUAC [Pin2Pin #5] (puzzle: Same State 1) | 0.0218 µM | 0.0246 µM | 0.0229 µM |  |  | 
GUUACAUGAGGAUCACCCAUGUAUGUGUGGGAGUAAGUGACUUAGGAUAUCUAAUAUUUAAAUUAAGAGAAGGAAGAUUGUUGU [JMF's solution 5] (Eterna round: R96, puzzle: Same State NG 3) |  |  |  | 0.266 µM | 0.131 µM | 0.202 µM
GGAGCCAGCACCGAGGAUAUUCAUAUUAAAACAUGAGGAUCACCCAUGUAGGCCAGAAGGCCUUGGGAGAAGGCGGACUGGCUCG [Xeonanis - 11] (Eterna round: R96, puzzle: Same State 2) |  |  |  | 0.0188 µM | 0.212 µM | 0.364 µM
AUACAUGAGGAUCACCCAUGUAAUUAAUUAACUAGUAAGAUCUAGGAUAUCAGCUCGUUUAGAGCUGAGAAGGAGAUCACAUGU [SSNG3/21-A3] (Eterna round: R96, puzzle: Same State NG 3) |  |  |  |  | 0.0288 µM | 
AGUCCAGCCUGAGCUGGACAAAAGCAUGUACAUGAGGAUCACCCAUGUCAUGUACAAGCUUUAUGCUCGUCUUAAAA [Mat - hsa-mir-208a - Mod of JL - D15] (puzzle: Sensor for hsa-mir-208a) | 0.224 µM | 0.0156 µM | 0.298 µM |  |  | 
UUUAGUUGCGGGCAGGAUAUGUAUUAAAAUACAUGAGGAUCACCCAUGUGAGACCGAAAAGGUCUACAGAAGGGCCAAUCGCGAC [Laonerce - 20] (puzzle: Same State 2) | 0.0161 µM | 0.066 µM | 0.0795 µM |  |  | 
UUCACCUUAUUUUACAUGAGGAUCACCCAUGUUUUUUUUACGUAGGAUAUCGAUGCUUGUUUAUUCGAGAAGGACGAUGUAAGU [JR_SSND3_Sub053] (Eterna round: R96, puzzle: Same State NG 3) |  |  |  |  | 0.028 µM | 
AGUCCAGCCUGAGCUGGACAAAAGCAUGUACAUGAGGAUCACCCAUGUCAUGUACAAGCUUUUUGCAAAUCUUAAUA [Mat - hsa-mir-208a - Mod of JL - D34] (puzzle: Sensor for hsa-mir-208a) | 0.603 µM | 0.0146 µM | 0.807 µM |  |  | 

— the supplement of paper PMC9170038
